Experimental data from patent US20250277025A1.

Biological target: human CLDN18.2 expressed on cells (human)
Experiment: cell-based or functional assay

In the case of Human IgG1 isotype antibody, the ADCC (PBMC) on KATOIII CLDN18.2 cells, LDH: max (% cytotoxity) (run A) is reported as 0.3%, the ADCC (PBMC) on KATOIII CLDN18.2 cells, LDH: max (% cytotoxity) (run B) is reported as -5.51% and the ADCC (PBMC) on KATOIII CLDN18.2 cells, LDH: max (% cytotoxity) (run C) is reported as -7.64%. It also gave an ADCC (PBMC) on NCI-N87 CLDN18.2 cells, LDH: max (% cytotoxity) (run A) of -6.73%, an ADCC (PBMC) on NCI-N87 CLDN18.2 cells, LDH: max (% cytotoxity) (run B) of -11.7% and an ADCC (PBMC) on NCI-N87 CLDN18.2 cells, LDH: max (% cytotoxity) (run C) of -9.22%.
